Laboratory results reported in patent US20250388643A1, “GLUCAGON-LIKE PEPTIDE-2 COMPOSITIONS AND METHODS OF MAKING AND USING SAME” (Amunix Pharmaceuticals, Inc., priority 2011, published 2025).
Entries after “also recorded” stand apart in the source; their conditions may differ.

Tests used:
[1] = system: small intestine growth in rats; experiment: Intestinotrophic growth in normal rats (small intestine weight and length); assay type: in vivo, rat
Protocol: To determine the intestinotrophic properties of GLP2-XTEN, small intestine growth in rats was measured as a primary pharmacodynamic endpoint. […] GLP2-2G-XTEN was dosed at 25 nmol/kg once daily for 12 days. After sacrifice, a midline incision was made, the small intestines were removed, stretched to their maximum length and the length recorded. The fecal material was flushed from the lumen and the small intestinal wet weight recorded. The small intestine length and weight data were analyzed with an ANOVA model with a Tukey/Kramer post-hoc test for pairwise comparisons, with significance at p=0.05.

[2] = system: indomethacin-induced intestinal inflammation in Wistar rats; experiment: Rat Crohn's Disease indomethacin-induced intestinal inflammation model, Study 1; assay type: in vivo
Protocol: To determine the efficacy of GLP2-XTEN using single dose or qd dosing, the GLP2-2G-XTEN-AE864 fusion protein was evaluated in a rat model of Crohn's Disease of indomethacin-induced intestinal inflammation in three separate studies.
Study 1: Intestinal inflammation was induced in eighty male Wistar rats (Harlan Sprague Dawley) using indomethacin administered on Days 0 and 1 of the experiment. The rats were divided into seven treatment groups for treatment according to Table 19.
All treatments were administered per the schedule starting on Day −3 of the experiment. Body weights were determined daily. Groups 3 and 5 were dosed equimolar/day. On Day 2 (24 hours post-2nd indomethacin dose), the animals were prepped for sacrifice and analysis. Thirty minutes prior to sacrifice, the rats were injected intravenously with 1 ml 1% Evans Blue dye, in order to visualize ulcers and extent of inflammation by histopathology analysis. The rats were anesthetized (SOP 1810), blood samples were removed to determine the concentration of GLP-2-2G-XTEN using the anti-XTEN/anti-GLP2 ELISA method. The rats were euthanized then necropsied and scored by gross examination of the intestines for the presence of adhesions; i.e., none=0, mild=1, moderate=2, or severe=3. The small intestines were removed and the length of each was recorded. In each small intestine, a longitudinal incision was made and the interior was examined. The degree and length of the ulcerated area was recorded as a score; i.e., none=0, few=1, multiple=2, or continuous=3. For TNFα determination, intestinal samples were thawed and homogenized in a total of 20 ml with DPBS. The supernatants were equilibrated to room temperature and assayed for TNFα by ELISA (R&D Systems, Cat. RTA00, lot 281687, exp. 7 Sep. 2011). The samples for Group 1 were assayed undiluted. The samples for Groups 2-7 were diluted 1:4. For histopathology, the small intestines were gently washed with saline to remove the fecal material and were blotted to remove excess fluid. Each small intestine was weighed then processed for histopathology examination to quantitate the degree of inflammation; i.e., 0.0%=0, 1-33%=1, 34-66%=2, 67-100%=3.

[3] = normal Sprague-Dawley rats, SC 12 days, peptide 12.5 nmol/kg twice daily, fusion protein 25 nmol/kg once daily

B1: GLP2-2G-XTEN_AE864: fusion protein of GLP-2 with glycine at position 2 linked at the C-terminus to XTEN AE864; sequence of FIG. 28 (SEQ ID NO: 798) (protein)
chain: HGDGSFSDEMNTILDNLAARDFINWLIQTKITDGGSPAGSPTSTEEGTSESATPESGPGTSTEPSEGSAPGSPAGSPTSTEEGTSTEPSEGSAPGTSTEPSEGSAPGTSESATPESGPGSEPATSGSETPGSEPATSGSETPGSPAGSPTSTEEGTSESATPESGPGTSTEPSEGSAPGTSTEPSEGSAPGSPAGSPTSTEEGTSTEPSEGSAPGTSTEPSEGSAPGTSESATPESGPGTSTEPSEGSAPGTSESATPESGPGSEPATSGSETPGTSTEPSEGSAPGTSTEPSEGSAPGTSESATPESGPGTSESATPESGPGSPAGSPTSTEEGTSESATPESGPGSEPATSGSETPGTSESATPESGPGTSTEPSEGSAPGTSTEPSEGSAPGTSTEPSEGSAPGTSTEPSEGSAPGTSTEPSEGSAPGTSTEPSEGSAPGSPAGSPTSTEEGTSTEPSEGSAPGTSESATPESGPGSEPATSGSETPGTSESATPESGPGSEPATSGSETPGTSESATPESGPGTSTEPSEGSAPGTSESATPESGPGSPAGSPTSTEEGSPAGSPTSTEEGSPAGSPTSTEEGTSESATPESGPGTSTEPSEGSAPGTSESATPESGPGSEPATSGSETPGTSESATPESGPGSEPATSGSETPGTSESATPESGPGTSTEPSEGSAPGSPAGSPTSTEEGTSESATPESGPGSEPATSGSETPGTSESATPESGPGSPAGSPTSTEEGSPAGSPTSTEEGTSTEPSEGSAPGTSESATPESGPGTSESATPESGPGTSESATPESGPGSEPATSGSETPGSEPATSGSETPGSPAGSPTSTEEGTSTEPSEGSAPGTSTEPSEGSAPGSEPATSGSETPGTSESATPESGPGTSTEPSEGSAPG
**Q.** B1 was tested. Which “small intestine growth compared with GLP2-2G peptide” value ([1]; equal nmol/kg dosing) did it give?
**A.** as good or better than GLP2-2G peptide

**Q.** What about the “increase in small intestine length” value [1, 3] of the same molecule?
**A.** 9%

**Q.** And the “increase in small intestine weight” value [1, 3]?
**A.** 31%

**Q.** What about the “increase in small intestine length” value ([1]; normal rats, 25 nmol/kg once daily for 12 days) of the same molecule?
**A.** 10 cm

**Q.** And the small intestine weight ([2]; 0.5 mg/kg peptide, both fusion protein groups, compared to diseased control Group 2, FIG. 21C)?
**A.** significant increase

**Q.** And the ulceration score ([2]; 6 mg/kg fusion protein)?
**A.** not significantly different from the non-diseased control

**Q.** And the “scores of adhesions and transulceration” value ([2]; 2 and 6 mg/kg fusion protein)?
**A.** not significantly different from the non-diseased control

**Q.** What about the small intestine length ([2]; FIG. 21B) of the same molecule?
**A.** significant increase; also recorded: length equivalent to the non-diseased control

**Q.** What about the “ulceration (gross pathology scoring of small intestine)” value ([2]; FIG. 21D) of the same molecule?
**A.** significant decreases in ulceration

**Q.** And the “small intestine inflammation score” value ([2]; FIG. 21F)?
**A.** neither the GLP-2-2G peptide nor the GLP-2-2G-XTEN fusion protein treatments showed a significant effect on inflammation

**Q.** And the “body weight at termination” value ([2]; compared to disease control (Group 2), FIG. 21A)?
**A.** demonstrated a significant increase

**Q.** What about the “scores of adhesions and transulceration” value ([2]; compared to diseased control (Group 2), FIG. 21E) of the same molecule?
**A.** significant decreases

**Q.** And the “TNFα in small intestine (ELISA)” value ([2]; compared to diseased control Group 2, FIG. 21G)?
**A.** significantly decreased cytokine levels

**Q.** And the “efficacy in improving indomethacin-induced small intestine damage” value ([2]; equal nmol/kg dosing)?
**A.** as good or better than GLP2-2G peptide
